Assays:
[1] = target: NTCPEM expressed on HEK 293F cells (human) (UniProt Q14973)
[2] = target: T1, wild-type human Na+-taurocholate co-transporting polypeptide (NTCP) expressed on HEK 293F cells (human, UniProt Q14973); assay: fluorescent ligand labelling of cells (plate reader); HEK 293F cells expressing NTCP constructs in PBS; labelled with 10 nM (wild-type NTCP) or 50 nM (NTCPEM) purified myr-preS1_48-GFP for 30 min; where tested, pre-incubation with 10 uM nanobody for 1.5 h; GFP fluorescence, excitation 470 nm, emission 508 nm; details: one partner purified
T1 construct: Na+-taurocholate co-transporting polypeptide (NTCP, SLC10A1), human, wild type; also called wild-type NTCP; SLC10A1; source: HEK 293F, transient transfection, on cells
T1 sequence (Q14973 whole entry): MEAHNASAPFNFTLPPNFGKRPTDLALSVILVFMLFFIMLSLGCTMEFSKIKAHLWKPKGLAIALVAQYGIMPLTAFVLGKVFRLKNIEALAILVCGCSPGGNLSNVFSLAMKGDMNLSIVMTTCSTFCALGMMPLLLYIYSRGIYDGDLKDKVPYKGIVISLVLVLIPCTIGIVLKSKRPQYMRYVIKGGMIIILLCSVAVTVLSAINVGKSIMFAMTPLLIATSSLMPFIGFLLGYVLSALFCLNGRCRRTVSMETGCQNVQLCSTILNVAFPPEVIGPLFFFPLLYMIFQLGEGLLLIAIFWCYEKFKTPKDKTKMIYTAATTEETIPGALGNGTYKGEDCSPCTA

Sequence of NTCPEM expressed on HEK 293F cells (human) (Q14973 other isoform, or with tags, fused parts or gaps, change not shown): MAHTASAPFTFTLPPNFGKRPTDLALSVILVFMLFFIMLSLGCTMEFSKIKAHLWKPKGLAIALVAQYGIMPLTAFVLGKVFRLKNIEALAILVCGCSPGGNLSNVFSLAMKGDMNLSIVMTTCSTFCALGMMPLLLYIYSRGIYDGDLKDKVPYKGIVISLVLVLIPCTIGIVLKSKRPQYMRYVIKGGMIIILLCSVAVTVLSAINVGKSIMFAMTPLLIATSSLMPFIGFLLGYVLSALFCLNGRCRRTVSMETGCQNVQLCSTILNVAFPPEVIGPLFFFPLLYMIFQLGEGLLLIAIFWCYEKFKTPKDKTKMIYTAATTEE

B1: Nanobody 91 (VHH)
VHH: QVQLVESGGGLVEAGGSLRLSCAASTNLRSYAMAWFRQAPGKEREFVSFINWNYGNTRYADSVKGRFTISRDNAKITVYLQMNSLKPEDTAVYYCAAATIGRLAGIDSTTLYDYWGQGTQVTVSS
B1 was tested, and the IC50 of inhibition of Na+-induced uptake of the fluorescent substrate tauro-nor-THCA-24-DBD by cells expressing NTCPEM [1] was 34 nM.

B2: Nanobody 87 (VHH)
VHH: QVQLVESGGGLVQAGGSLRLSCAVSGRTTANYNMGWFRQAPGKEREFVAGIKWSSGSTYVADSAKGRFTISRDNAKNSVYLQMDSLKPEDTALYYCAANYYGVSWFLISPSSYDYWGQGTQVTVSS
notes: llama (Lama glama) nanobody raised against NTCPCO; the nanobody chain of PDB 7PQG; Tags are those of the phage display vector pMESy4 as told for the library; also called Nb87; source: E. coli periplasm, purified (Ni-NTA, SEC)
In the case of B2, the binding result [2] is reported as “binds” and the IC50 of inhibition of Na+-induced uptake of the fluorescent substrate tauro-nor-THCA-24-DBD by cells expressing NTCPEM [1] is reported as 180 nM.

— paper PMC9242856, “Structural basis of sodium-dependent bile salt uptake into the liver” (Nature, 2022)
